Measured values reported in publication PMC10760138 (bioRxiv, 2024).

Biological target: full-length, membrane-anchored A/Aichi/02/1968(H3N2)(X-31) HA (Influenza A virus …, UniProt P03437)
Assay: flow cytometry on cells

Binder | binding result
HC19 recombinant IgG (antibody, V domains shown) VH: QVQLKESGPGLVAPSQSLSITCTVSGFLLISNGVHWVRQPPGKGLEWLGVIWAGGNTNYNSALMSRVSISKDNSKSQVFLKMKSLQTDDTAMYYCARDFYDYDVFYYAMDYWGQGTSVTVSS VL: QAVVTQESALTTSPGETVTLTCRSSTGAVTTSNYANWVQEKPDHLFTGLIGGTNNRAPGVPARFSGSLIGDKAALTITGAQTEDEAIYFCALWYSNHWVFGGGTKLTVL | binds
S5V2–29 recombinant IgG (antibody, V domains shown) VH: QVQLQESGPGLVKPSETLSLTCTVSGGSVSSNIYYWSWIRQTPGKGLEWLGYFYHSGSSNYNPSLKSRVTISGDMSKNQFSLKLKSVTAADTAIYYCARGGVENLMLVAVIQEMWYFDLWGRGTLVTVSG VL: DIQMTQTPSSLSASVGDRVTITCRASQSIGASLNWYQQKPGEAPKFLIYAASNLQSGVPSRFSGSGSGTDFTLTISSLQPEDFATYYCQQQGTFGQGTKLEIK | binds
S8V1–157 recombinant human IgG1 (antibody, V domains shown) VH: EVQLVQSGAEVKKPGASVKVSCKVSGYRLTALSMHWVRQAPGKGLEWMGGFDPEEDETIYAQNFQGRVTLTEDTSTDTVYMELSSLRSEDTGVYYCATLMGANPFDYWGQGTLIIVSG VL: not shown | binds
